Results: patent US20110152166A1, “METHOD OF MODULATION OF PROTEIN PHOSPHORYLATION-DEPENDENT CONFORMATIONAL TRANSITIONS WITH LOW MOLECULAR WEIGHT COMPOUNDS” (priority 2006, published 2011)

Tests used:
[1] = target: T1, Thr221-phosphorylated S6K11-364 (Rattus norvegicus, UniProt P67999); assay: S6K1 in vitro reconstitution kinase assay with tail peptides; type: biochemical
T1 construct: Purified HA-S6K1-364 was incubated with synthetic S6K1 (rat) tail peptides; made in house; host or cells: COS7, co-transfected with myc-PDK1; anti-HA immunoprecipitate
T1 sequence (P67999 24-387): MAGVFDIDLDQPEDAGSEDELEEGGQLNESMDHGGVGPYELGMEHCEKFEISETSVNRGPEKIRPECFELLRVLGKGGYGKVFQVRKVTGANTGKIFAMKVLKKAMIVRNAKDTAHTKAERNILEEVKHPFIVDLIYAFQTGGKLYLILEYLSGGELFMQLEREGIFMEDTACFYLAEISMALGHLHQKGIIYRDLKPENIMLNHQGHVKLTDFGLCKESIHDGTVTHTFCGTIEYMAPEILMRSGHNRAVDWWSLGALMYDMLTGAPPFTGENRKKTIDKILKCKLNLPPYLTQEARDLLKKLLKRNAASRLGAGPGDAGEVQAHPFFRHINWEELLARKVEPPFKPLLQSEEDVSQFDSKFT
Description: We established an in vitro reconstitution assay that could test a direct activation of the AGC kinase domain by the tail phosphate and characterize its cooperation with the HM and activation loop phosphates. The deletion mutant S6K11-364, which contains the kinase domain, but lacks the region of the tail containing the tail site and the HM as well as the C-terminal autoinhibitory domain, was expressed and purified from COS7 cells, either non-phosphorylated or phosphorylated at T221 in the activation loop, achieved by co-expression with PDK1. Purified S6K11-364 was then incubated with synthetic peptides of the S6K1 tail (residues 366-395: QTPVDS^371PDDSTLSESANQVFLGFT^389YVAPSV), which were either non-phosphorylated (S371/T389), phosphorylated at the tail site (pS371/T389), phosphorylated in the HM (S371/pT389) or phosphorylated at both sites (pS371/pT389). Subsequently, the kinase activity of S6K11-364 was determined.
Kinase assays for PKB, RSK, S6K, MSK were done as described previously (Frodin et al., 2002). […] After washing with 150 mM orthophosphoric acid, [^32P]phosphate incorporated into peptide substrate was quantified in an FLA-3000 apparatus (Fujifilm). […]

[2] = tested on: GST-S6K11-365; assay: Surface plasmon resonance, S6K1 binding to tail peptides; design: species or system rat; conditions: K144N versus wt
Procedure: FIG. 13. The tail phosphate synergistically enhances the ability of the HM phosphate to activate S6K, dependent on the tail phosphate-binding site. (A) The kinase activity of purified kinase domain of S6K1 (S6K11-364), pre-phosphorylated by PDK1 in the activation loop, was determined in the presence of increasing concentrations of synthetic S6K1 tail peptide (residues 366-395) that was either non-phosphorylated (S371/T389), phosphorylated at Ser371 (pS371/T389) or Thr389 (5371/pT389) or phosphorylated at both sites (pS371/pT389). (B) The kinase activity of S6K11-364 and S6K11-364K144N, either pre-phosphorylated or not by PDK1, was determined in the absence or presence of 90 μM S371/pT389 or pS371/pT389. (C) pS371/pT389 S6K1 tail peptide was biotinylated and used to coat streptavidin Sensor Chips. The chips were thereafter analyzed for binding to purified GST-S6K11-365 or GST-56K11-365K144N. (A-C) Experiments were repeated at least 3 times and activity data (expressed as percent) are means±SD.
Sixty 146 cm^2 dishes with COST cells were co-transfected with pEBG-2T-S6K1-365 and pCMV5-myc-PDK1 (ratio 3:1) using calcium phosphate precipitation or with pEBG-2T-PKCζ and pCMV5-myc-PDK1 (ratio 3:1) using Fugene HD according to the manufacturers Instructions. Two days after transfection, the cells were harvested in lysis buffer as described above. […]

stimulation of kinase activity (in words) [1]: did not stimulate | decrease of binding of S6K11-365 to peptide by the K144N mutation [2]: about 40%
Substance: pS371/T389: synthetic S6K1 tail peptide (residues 366-395) phosphorylated at the tail site
